Measured values taken from publication PMC5458677.

Target: His-tagged full-length Anisakis simplex macrophage migration inhibitory factor (As-MIF, 1-121) (Anisakis simplex)
Test: SPR

His-tagged human JAB1 (1-257) (from UniProt Q92905 1-257) (domain or fragment)
Kd: 0.0166 µM
